Experimental data reported in patent US20250163449A1, “HERBICIDE-TOLERANT GENES AND METHOD FOR USING SAME” (QINGDAO KINGAGROOT CHEMICAL COMPOUND CO., LTD., priority 2022, published 2025).
Changes are numbered by the printed parent chain. Names and notes keep the numbering of the source.

B1: SEQ ID NO: 42: RdpA mutant L82H + V187L + F182W + G103L (protein)
chain: MHAALSPLSQRFERIAVQPLTGVLGAEITGVDLREPLDDSTWNEILDAFHTYQVIYFPGQAITNEQHIAFSRRFGPVDPVPHLKSIEGYPEVQMIRREANESLRVIGDDWHTDSTFLDAPPAAVVMRAIDVPEHGGDTGFLSMYTAWETLSPTMQATIEGLNVVHSATRVFGSLYQAQNRRWSNTSLKVMDVDAGDRETVHPLVVTHPGSGRKGLYVNQVYCQRIEGMTDAESKPLLQFLYEHATRFDFTCRVRWKKDQVLVWDNLCTMHRAVPDYAGKFRYLTRTTVGGVRPAR
B2: SEQ ID NO: 46: RdpA mutant L82H + V187L + F182W + R104G + T112S (protein)
chain: B1 chain with L103G, R104G, T112S
B3: SEQ ID NO: 142: RdpA mutant L82H + V187L + F182W + R104G + T112S + R180Q (protein)
chain: B1 chain with L103G, R104G, T112S, R180Q

How the values were obtained:
rice (Jinjing 818) [1] = assay: Transgenic rice T0 plantlets in greenhouse sprayed with compound B; type: in vivo; conditions: for tolerance compared with the wild types (summary): medicated medium test and greenhouse spraying test for T0 generation, compound B
Method: Then, the obtained regenerated TO generation transgenic plantlets grew in the greenhouse, and were sprayed with compound B at the growth stage when approximately two leaves unfolded and the third one just appearing. Resistance levels of plants were recorded and evaluated after spraying treatment, wherein, the test results of control Jinjing 818 plants and transgenic Jinjing 818 plants comprising the protein-coding gene of SEQ ID NO: 42 after applying 20 g, 40 g, 60 g, 80 g, 100 g, 120 g/mu (1 mu=1/15 ha) compound B for corresponding days (DAT) are shown in FIG. 2.

Arabidopsis thaliana [2] = assay: T2 transgenic Arabidopsis thaliana seeds screened on compound A medium; type: in vivo; conditions: 0.15 μM compound A in medium, 11-24 days
Description: Engineered proteins were selected for Arabidopsis thaliana transformation and plant analysis. DNA constructs were transformed into Arabidopsis thaliana using Agrobacterium tumifaciens and standard methods known in the art.
The transformed TO transgenic plantlets grew in the greenhouse. T1 generation Arabidopsis thaliana plant seeds produced by transformation of all constructs were collected after approximately 60 days of growth. Transgenic T1 generation Arabidopsis thaliana plants were screened by adding HYG to medium for T1 generation. T1 plants were selfed to produce seeds of T2 generation Arabidopsis thaliana plants. Wherein, compound A was added to medium to screen and test T2 generation Arabidopsis thaliana plant seeds, that were produced by all constructs, comprising unique events screened by T1 generation.

soybean = assay: Transgenic soybeans sprayed with compound C; type: in vivo; conditions: for resistance compared with the wild-type soybean: 10 g compound C sprayed
Method: Engineered proteins were selected for soybean transformation and plant analysis. DNA constructs were transformed into soybeans using Agrobacterium tumifaciens and standard methods known in the art.
The transformed TO transgenic plantlets grew in the greenhouse. TO generation transgenic plantlets were tested by spraying 10 g compound C. […] T1 generation soybean plant seeds produced by transformation of all constructs were collected, and T1 generation seedlings were tested by spraying 10 g compound C.

[3] = Enzymatic kinetic measurements of purified proteins with compound A as substrate; type: biochemical; conditions: purified protein, compound A 0-1000 μM as substrate
Method: Based on the results of HPLC, representative engineered proteins were selected for protein purification. Further protein characterization, such as Km, Vmax and Kcat, was performed on the 8 engineered proteins from Table 2. Conventional Ni column affinity chromatography was used for protein purification and protein extract purity was assessed by SDS-PAGE analysis. After determining protein concentration by BCA method, enzyme activity was determined.

[4] = Conversion rate of substrate compound A by E. coli expressing each engineered protein (HPLC, oxygenase activity); type: biochemical
Description: The high-throughput bacterial protein expression was achieved by cloning the synthesized gene that encodes each engineered protein into a bacterial expression vector with a C-terminal histidine tag (His-tag). The vectors were transformed into Escherichia coli (E. coli), and expression of the engineered proteins was induced. E. coli cultures were selected and cultured in centrifuge tubes overnight, meanwhile, added with substrates and IPTG, and the cultures were centrifuged to pellet the bacteria the next day. Alternatively, E. coli cultures were selected and cultured in centrifuge tubes overnight, and centrifuged to pellet the bacteria after adding substrates for reaction the next day. The supernatant of reaction solution was pipetted into a 96-well plate and the absorbance at 510 nm from 4-aminoantipyrine and potassium ferricyanide was measured by an endpoint colorimetric method to detect phenol products. Substrate reduction and product yield were measured by high performance liquid chromatography (HPLC) to detect the oxygenase activity (i.e., enzymatic activity) of the engineered proteins, and the activities of the proteins were compared by calculating conversion rates.
Conversion rate=(Peak area of initial substrate−Peak area of substrate after reaction)/Peak area of initial substrate*100%

rice (Jinjing 818) [5] = assay: Transgenic rice seedlings, compound B added to medium at rooting phase; type: in vivo; conditions: at least 1 μM compound B in medium (0.5 and 1 μM for SEQ ID NO: 42), 17-26 days
Method: Plant transformation vectors were constructed, each comprising a recombinant DNA molecule encoding an engineered protein (SEQ ID NO: 42/38/82/86/102/106/126/138/142) with the protein-coding sequence optimized for monocot expression, and rice (Jinjing 818) calli were transformed with these vectors using Agrobacterium tumifaciens and standard methods known in the art. Different concentrations of hormone herbicide compound B were added at the rooting phase of the rice seedlings to test hormone resistance, wherein, the test results of control Jinjing 818 plants and transgenic Jinjing 818 plants comprising the protein-coding gene of SEQ ID NO: 42 after adding 0.5 μM and 1 μM compound B to medium for 19 days are shown in FIG. 1. The test results of control Jinjing 818 plants and transgenic Jinjing 818 plants comprising the protein-coding genes of SEQ ID NO: 38/82/86/102/106/126/138/142 after adding 1 μM compound B to medium are shown in FIG. 5-11.

Arabidopsis thaliana [6] = assay: T2 transgenic Arabidopsis thaliana plants foliage-sprayed with compound B; type: in vivo; conditions: foliage-sprayed with 40 g/mu compound B, 12 days
Description: In addition, compound B was sprayed to test T2 generation Arabidopsis thaliana plants, that were produced by some of the constructs, comprising unique events screened by T1 generation, wherein, the test results of the wild-type Arabidopsis thaliana control plants transformed with RdpA gene and Arabidopsis thaliana plants comprising the protein-coding gene of SEQ ID NO: 42 after being foliage-sprayed with 40 g/mu compound B for 12 days are shown in FIG. 4.

maize = assay: T0 transgenic maize plantlets sprayed with 30% glyphosate compound C (25+5) ME; type: in vivo
Method: Engineered proteins were selected for maize transformation and plant analysis. DNA constructs were transformed into maizes using Agrobacterium tumifaciens and standard methods known in the art.
The transformed TO transgenic plantlets grew in the greenhouse. TO generation transgenic plantlets were tested by spraying with 150 g, 250 g, 400 g, 600 g, 800 g of 30% glyphosate compound C (25+5) ME.

rice (Jinjing 818) [7] = assay: Transgenic rice T0 plantlets in greenhouse sprayed with quizalofop-P-ethyl; type: in vivo; conditions: T0 plantlets foliage-sprayed with 5 g, 10 g/mu quizalofop-P-ethyl, 20 DAT
Method: The obtained regenerated TO generation transgenic plantlets grew in the greenhouse, and were sprayed with compound quizalofop-P-ethyl at the growth stage when approximately two leaves unfolded and the third one just appearing. Resistance levels of plants were recorded and evaluated after spraying treatment, wherein, the test results of control Jinjing 818 plants and transgenic Jinjing 818 plants comprising the protein-coding gene of SEQ ID NO: 46 after applying 0 g, 5 g, 10 g/mu compound quizalofop-P-ethyl for 20 DAT are shown in FIG. 12.

[8] = Reaction condition 1: bacteria cultured overnight, substrate compound A and IPTG added to react overnight

Molecule	drug resistance (tolerance to compound B) compared with wild-type plants (rice (Jinjing 818) [1]; T0 plantlets foliage-sprayed with 20-120 g/mu compound B, tolerance at at least 120 g/mu)	tolerance compared with the wild types (summary) (rice (Jinjing 818) [1])	drug resistance compared with wild-type Arabidopsis thaliana (longer roots and larger leaves) (Arabidopsis thaliana [2])	drug resistance compared with the wild-type soybeans (soybean; T1 generation plantlets, 10 g, 20 g, 40 g, 80 g compound C sprayed, at least 40 g)	Kcat [3] [S^−1]	Km [3] [µM]	Vmax [3]	Conversion rate [4, 8] [%]	drug resistance (tolerance to compound B) compared with wild-type plants (rice (Jinjing 818) [5])	drug resistance compared with wild-type plants transformed with RdpA gene (Arabidopsis thaliana [6])	resistance compared with the wild-type soybean (soybean; T0 generation plantlets)	resistance compared with the wild-type soybean (soybean; T1 generation seedlings)	drug resistance compared with the wild-type maize (maize; 600 g 30% glyphosate compound C (25+5) ME)	phytotoxicity reaction of transgenic plantlets (maize; 600 g of 30% glyphosate compound C (25+5) ME)	phytotoxicity reaction of transgenic plantlets (maize; 800 g of 30% glyphosate compound C (25+5) ME)	phytotoxicity reaction of transgenic plantlets (maize; concentration below 600 g of 30% glyphosate compound C (25+5) ME)	drug resistance (tolerance to quizalofop-P-ethyl) compared with wild-type plants (rice (Jinjing 818) [7])	Conversion rate ([4]; Reaction condition 2: bacteria cultured overnight, 8 times dose of substrate compound A of condition 1 added, react 3 hours the next day) [%]
B1	exhibited better drug resistance	exhibited apparent tolerance	exhibited better drug resistance	exhibited better drug resistance	0.86	81.3	99.6	96.6	exhibited better drug resistance	exhibited better drug resistance	–	–	–	–	–	–	–	–
B2	–	–	exhibited better drug resistance	–	0.15	17.5	35.2	97	–	–	exhibited apparent resistance	exhibited apparent resistance	better drug resistance	the stem base was slightly enlarged, the whole plant growth was obviously inhibited, and the plant was in normal condition	the stem base was significantly enlarged, inhibition on the whole plant growth was further intensified, and the leaf color became lighter and lusterless	no apparent phytotoxicity reaction	exhibited better drug resistance	–
B3	–	exhibited apparent tolerance	exhibited better drug resistance	–	–	–	–	–	exhibited better drug resistance	–	–	–	–	–	–	–	–	67
